Measured values published in paper PMC2172693.

Target: tetramethylrhodamine isothiocyanate-labeled actin (UniProt P68139)
Assay: optical trap

| step duration (τon) [ms] | Substance |
| --- | --- |
| 104 | wild-type smooth muscle heavy meromyosin (from UniProt P10587;P02607) (complex) |
| 106 | heterodimeric heavy meromyosin with one wild-type head and one E470A head (from UniProt P10587;P02607) (complex) |
| 189 | single-headed subfragment-1 with neonatal epitope tag at its COOH terminus (from UniProt P10587;P02607) (complex) |
